Where two headings read alike, the source gives them in different places.
Tests used:
[1] = Stability of the conjugates
[2] = Solubility in water / aqueous buffers
CD36 macrophage receptor = biological target: T1, CD36 macrophage receptor (Mus musculus, UniProt Q08857); test: CD36 macrophage receptor binding competition assay (biotinylated CuOxLDL binding to J774 macrophages); set-up: species or system murine
T1 construct: endogenous in cells; host or cells: J774 murine macrophage cell line
Source text: Data are given as relative light units (RLU) per 100 ms (milliseconds). The plot is a representative experiment chosen from among at least four experiments. […] Data are shown as mean±SD (Standard Deviation) of B/B0 from 2 independent experiments with triplicate determination. […] Data are shown as mean±SD of B/B0 from two independent experiments with triplicate determination. Data in FIG. 3B and FIG. 3C were produced in parallel experiments.
The fixed concentration of biotinylated CuOxLDL (1.8 pmol apoB/mL, corresponding 1 μg apoB/mL or 0.14 nmol PC-epitopes/mL) was preincubated with compound 6, the control peptide TGTKGG, CuOxLDL, or native LDL, added at the concentrations indicated on the graphs, and then tested for binding as described in the experimental section. The highest CuOxLDL concentration tested was 200 μg/mL, which corresponds to approximately 28.3 nmoles of PC-epitopes/mL, as estimated from the previous observation that 1 mole of apoB-100 from CuOxLDL contains 78±15 moles of covalently attached phosphorus^10, which it is assumed are PC-epitopes only. The concentration of native LDL is plotted at equal protein concentration to CuOxLDL (and thus not as molar concentration of PC-epitopes). Each data point represents the mean and SD of 2 independent experiments of triplicate wells.
Each of peptide-phospholipid conjugates 6 and 23-27 were tested as competitors in a CD36 macrophage receptor binding competition assay, where fixed concentrations of CuOxLDL were incubated with the serially diluted competitor and controls in PBS buffer. The IC50 of each competitor is reported below in Table 1, confirming the affinity of the compounds of the invention for the CD36 macrophage receptor:
Binding of biotinylated OxLDL ligands to murine macrophages plated in microtiter wells was assessed by a chemiluminescent binding assay. Isolated human LDL was biotinylated according to manufacturer's protocol (Catalog No. 21326; Pierce Biotechnology). Native and biotinylated native LDL were subjected to copper sulfate oxidation in parallel to prepare unlabelled and biotinylated CuOxLDL ligands, respectively. It has been previously shown that CuOxLDL contains approximately 78 moles of PC-epitopes per mole of apoB-100 (the sole protein on LDL). The biotinylated native LDL and CuOxLDL ligands of equal protein concentration were serially diluted and tested for binding to adherent macrophages. The specificity of the binding of biotinylated CuOxLDL to macrophages was tested in competition experiments, where fixed concentrations of biotinylated CuOxLDL were incubated with the serially diluted competitor and controls in PBS. The ligand-competitor solutions were incubated overnight at 4° C. Murine macrophages from the J774 cell line were cultured in 10% fetal bovine serum in DMEM (DMEM-10) and plated in 100 μL L929-fibroblast conditioned media at 100,000 or 25,000 cells/well, respectively, in sterile 96-well flat-bottom white plates (Greiner Bio-One). The plating media consisted of 20% L929-fibroblast conditioned DMEM-10 and 80% fresh DMEM-10 and served as a source of growth factors, including macrophage colony-stimulating factor. After 72 hours, the plates were washed gently 5 times with PBS using a microtiter plate washer (Dynex Technologies, Chantilly, Va.), and wells were blocked with ice-cold 200 μL DMEM for 30 min, while plates were kept on ice. After washing, macrophages were incubated with ice-cold ligand and ligand-competitor solutions (100 μL/well) for 2 hours on ice, washed again, and fixed with ice-cold 3.7% formaldehyde in PBS for 30 min in the dark. After fixing the macrophages, the remaining part of the assay was carried out at room temperature. Macrophage-bound biotinylated OxLDL ligands were detected with NeutrAvidin-conjugated alkaline phosphatase (Pierce Biotechnology), LumiPhos 530 (Lumigen, Southfield, Mich.), and a Dynex Luminometer (Dynex Technologies). […]

macrophages and T-cells = test: Affinity for macrophages and T-cells; assay type: cell-based

T1 sequence (Q08857 whole entry): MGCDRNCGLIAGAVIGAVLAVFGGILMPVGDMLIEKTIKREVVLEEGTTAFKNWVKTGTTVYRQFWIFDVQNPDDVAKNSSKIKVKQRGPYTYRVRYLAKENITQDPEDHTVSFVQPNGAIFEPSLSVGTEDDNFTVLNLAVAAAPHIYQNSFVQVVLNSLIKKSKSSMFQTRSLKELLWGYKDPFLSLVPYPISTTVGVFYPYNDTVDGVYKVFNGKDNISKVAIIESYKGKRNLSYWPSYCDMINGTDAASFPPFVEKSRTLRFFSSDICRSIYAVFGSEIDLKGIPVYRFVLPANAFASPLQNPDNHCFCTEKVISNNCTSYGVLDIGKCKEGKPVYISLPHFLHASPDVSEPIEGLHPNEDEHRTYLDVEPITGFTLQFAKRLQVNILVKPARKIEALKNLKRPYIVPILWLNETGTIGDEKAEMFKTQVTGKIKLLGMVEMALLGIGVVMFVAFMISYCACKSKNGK

SMILES	stability [1]	water solubility / solubility in aqueous buffers [2]	IC50 (CD36 macrophage receptor)	further results
CCCCCCCCCCCCCCCC(=O)OC[C@H](COP(=O)([O-])OCC[N+](C)(C)C)OC(=O)CCCCOCCCC[C@H](NC(=O)[C@@H](NC(=O)CNC(=O)[C@@H](NC(C)=O)[C@@H](C)O)[C@@H](C)O)C(=O)NCC(=O)N[C@@H](Cc1ccc(O)cc1)C(=O)O [Compound 4]	stable	poor water solubility		
CCCCCCCCCCCCCCCC(=O)OC[C@H](COP(=O)([O-])OCC[N+](C)(C)C)OC(=O)CCCCN(C)CCCC[C@H](NC(=O)[C@H](Cc1ccccc1)NC(=O)[C@H](C)NC(C)=O)C(=O)NCC(=O)NCC(=O)O [Compound 27]			47 µM	
CCCCCCCCCCCCCCCC(=O)OC[C@H](COP(=O)([O-])OCC[N+](C)(C)C)OC(=O)CCCCN(C)CCCC[C@H](NC(C)=O)C(=O)NCC(=O)NCC(=O)O [Compound 23]				IC50 (CD36 macrophage receptor; competitor serially diluted, fixed concentration of CuOxLDL, PBS buffer, J774 macrophages, read-out: IC50): 38 µM
CCCCCCCCCCCCCCCC(=O)OC[C@H](COP(=O)([O-])OCC[N+](C)(C)C)OC(=O)CCCCCCCCC[C@H](NC(=O)[C@@H](NC(=O)CNC(=O)[C@@H](NC(C)=O)[C@@H](C)O)[C@@H](C)O)C(=O)NCC(=O)N[C@@H](Cc1ccc(O)cc1)C(=O)O [Compound 5]	stable	poor water solubility		
CCCCCCCCCCCCCCCC(=O)OCC(COP(=O)([O-])OCC[N+](C)(C)C)OC(=O)CCCCOCCCC[C@H](NC(=O)[C@H](C)NC(=O)[C@H](C)NC(C)=O)C(=O)N[C@@H](C)C(=O)N[C@@H](Cc1ccc(O)cc1)C(=O)O (stereo partly shown) [Compound 3]	stable	poor water solubility		
CCCCCCCCCCCCCCCC(=O)OC[C@H](COP(=O)([O-])OCC[N+](C)(C)C)OC(=O)CCCCN(C)CCCC[C@H](NC(=O)[C@@H](NC(=O)CNC(=O)[C@@H](NC(C)=O)[C@@H](C)O)[C@@H](C)O)C(=O)NCC(=O)NCC(=O)O [Compound 6]	stable	soluble in aqueous buffers	60 µM	affinity for macrophages and T-cells (macrophages and T-cells): showed affinity for macrophages and T-cells; competition with biotinylated CuOxLDL binding to macrophages (CD36 macrophage receptor; J774 macrophages, fixed biotinylated CuOxLDL 1.8 pmol apoB/mL (1 μg apoB/mL), FIG. 3B/3C, mean of 2 independent experiments, triplicate wells): more than 99%
CCCCCCCCCCCCCCCC(=O)OC[C@H](COP(=O)([O-])OCC[N+](C)(C)C)OC(=O)CCCCN(C)CCCC[C@H](NC(=O)[C@@H](NC(C)=O)C(C)C)C(=O)NCC(=O)NCC(=O)O [Compound 25]			55 µM	
CCCCCCCCCCCCCCCC(=O)OC[C@H](COP(=O)([O-])OCC[N+](C)(C)C)OC(=O)CCCCN(C)CCCC[C@H](NC(=O)[C@H](C)NC(C)=O)C(=O)NCC(=O)NCC(=O)O [Compound 24]			131 µM	
CCCCCCCCCCCCCCCC(=O)OC[C@H](COP(=O)([O-])OCC[N+](C)(C)C)OC(=O)CCCCN(C)CCCC[C@H](NC(=O)[C@H](Cc1ccccc1)NC(C)=O)C(=O)NCC(=O)NCC(=O)O [Compound 26]			47 µM	

— patent US9518088B2, “Peptide-phospholipid conjugates” (Indiana University Research and Technology Corporation, priority 2011, dated 2016)
